Source: patent publication US20250270737A1, “Antibodies That Bind GLP1R” (Twist Bioscience Corporation, priority 2019, published 2025)

Key:
CHO-parent = assay: VHH-Fc FACS binding on CHO-parent cells; conditions: Sample E10.fcs/CHO-parent
GLP1R = GLP1R (Homo sapiens, UniProt P43220); assay: VHH-Fc FACS binding on CHO-GLP1R cells; conditions: Sample E10.fcs/CHO-GLP1R
Method: A VHH library for GLP1R was developed similar to methods described in Example 14. Briefly, stable cell lines expressing GLP1R were generated, and target expression was confirmed by FACS. Cells expressing >80% of the target were then used for cell-based selections. Five rounds of cell-based selections were carried out against cells stably overexpressing the target of interest. 10^8 cells were used for each round of selection. Before selection on target expressing cells, phage from each round was first depleted on 10^8 CHO background cells. Stringency of selections was increased by increasing the number of washes in subsequent rounds of selections. The […] using trypsin, and the phage was amplified for the next round of panning. A total of 1000 clones from round 4 and round 5 are sequenced by NGS to identify unique clones for reformatting as VHH-Fc.
The data for variant GLP1R-43-77 is seen in FIGS. 22A-22B and Tables 23B-24.

Sequence of GLP1R (P43220 24-463): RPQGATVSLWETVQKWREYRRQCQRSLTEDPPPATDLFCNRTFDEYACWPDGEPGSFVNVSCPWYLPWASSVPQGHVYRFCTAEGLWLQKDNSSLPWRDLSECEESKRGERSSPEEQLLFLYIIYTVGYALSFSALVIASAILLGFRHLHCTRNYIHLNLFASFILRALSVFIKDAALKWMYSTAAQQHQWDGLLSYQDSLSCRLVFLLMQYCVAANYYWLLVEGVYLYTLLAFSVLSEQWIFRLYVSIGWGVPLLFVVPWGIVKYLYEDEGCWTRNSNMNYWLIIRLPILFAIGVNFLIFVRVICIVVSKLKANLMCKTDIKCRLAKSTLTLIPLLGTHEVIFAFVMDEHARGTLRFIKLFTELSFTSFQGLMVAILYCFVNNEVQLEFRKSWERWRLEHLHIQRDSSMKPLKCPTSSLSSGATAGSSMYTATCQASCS

B1: GLP1R-43-77: GLP1R VHH Fc binder variant from the VHH library for GLP1R (protein)
VHH: EVQLVESGGGLVQAGGSLRLSCAASGNTYSYKVMGWFRQAPGKEREFVGIIIRNGDTTYYADSVKGRFTISADNAKNTVYLQMNSLKPEDTAVYYCAASPKYMTAYERSYDWGQGTQVTVSS
modifications: Fc
Median: RL1-A (CHO-parent): 237
Median: RL1-A (GLP1R): 23439
